In the supplement of paper PMC9170038:

Test system: MS2 coat protein
Test: apparent KD of MS2 coat protein; designed switch direction (-1 OFF switch, 1 ON switch): -1; higher = weaker reporter binding
Method in brief: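 For each design, the apparent KD is the median over clusters of curves fitted to normalised cluster fluorescence. Clusters held RNA switches with common flanks, transcribed on Illumina chips by stalled E. coli RNA polymerase. These were titrated with SNAP-549-labelled MS2 coat protein, doubling from 0.7 or 1.5 nM to 3 µM, without input, with 200 uM small-molecule ligand, or with an oligonucleotide input.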

[1] = input ligand: microRNA oligo, concentration not stated
[2] = Eterna round: R95, input ligand: microRNA oligo, concentration not stated
[3] = Eterna round: R95, input ligand: FMN 200 uM
[4] = Eterna round: R95, input ligand: none

Row | Sequence | apparent KD of MS2 coat protein (input ligand: FMN 200 uM) | apparent KD of MS2 coat protein (input ligand: none) | apparent KD of MS2 coat protein [1] | apparent KD of MS2 coat protein [2] | apparent KD of MS2 coat protein [3] | apparent KD of MS2 coat protein [4]
1 | UCAUGUCCUGAGGAUAUGUAGCGGAUAAACGCAACAGAAGGCAGGACAUGAGGAUCACCCAUGUGUGCCUUCCA [Exclusion 6 Mod of JL of Mod of Letion by ViennaUCT] (Eterna round: R97, puzzle: Exclusion 6) | 8.14 nM | 113 nM | – | – | – | –
2 | CGUCAGUGAGGAUAUGGUAACAUUUACAUGAGGAUCACCCAUGUUUCAUGGGACUAAAGACUAGAAGGCACUGACG [JR_Ex5_Sub031] (Eterna round: R97, puzzle: Exclusion 5) | 80.9 nM | 36.9 nM | – | – | – | –
3 | GGGAAGGGAGGAUAUGAGGAAGAGAACAUGAGGAUCACCCAUGUGAGGCCUCAGGAUCGAUCAGAAGGCCCGAUCC [AK-MS2ROC-r4-exclusion5-15] (Eterna round: R97, puzzle: Exclusion 5) | 297 nM | 142 nM | – | – | – | –
4 | GGAUGUCUAAAGGAUAUGCUGGAUUAAUAUCUGGCAGAAGGUUGGACAUGAGGAUCACCCAUGUAAAUUCUGCC [Omei Ex6 A11] (Eterna round: R97, puzzle: Exclusion 6) | 24.6 nM | 17.3 nM | – | – | – | –
5 | AAUUAUUAUUGAGGAUAUCGUAUUGAAACAAUACGAGAAGGCGGUAUAAACAUGAGGAUCACCCAUGUGAGCCUGAUGCUUAUG [Ex NG1 #99] (Eterna round: R96, puzzle: Exclusion NG 1) | – | – | 27.5 nM | – | – | –
6 | UUUUAACAUGAGGAUCACCCAUGUGAGGAUAUCGAAAUUUAUAUUAAUAUUAUUAAAUCGAGAAGGCACAUUUU [JMF 36] (puzzle: Exclusion 1) | – | – | – | 104 nM | – | –
7 | UCACACGGAGGAUAUACCGUCGGUCAUUGGUGUGACGUAUCACAUGAGGAUCACCCAUGUAGAAGGCCGUGCUU [Eternabot (L2) Solution 14] (Eterna round: R97, puzzle: Exclusion 2) | 394 nM | 208 nM | – | – | – | –
8 | CUCGGGAGUCAGGAUAUCGGCACAUAUCAAUCACGAGAAGGGACGACAUGAGGAUCACCCAUGUGGGAAAAGAA [Bivetilaza] (puzzle: Exclusion 6) | – | – | – | 38.1 nM | 92.9 nM | 41.7 nM
9 | CCAGGCGUCUUGGCUCGUCUUAUUUGGAGAGGAUUGAUAACAUGAGGAUCACCCAUGUGUGUGGGAGCGUUGCAGUG [JR_SV3TOV2_Sub019] (puzzle: Sensor v3, turn-off variant 2) | – | – | – | 137 nM | 75.5 nM | 102 nM
10 | UAUGUGUCAGGAUAUUAAUUAGAACAGAAUUUAACAAUAAUUAAGAAGGGACAUGAGGAUCACCCAUGUUCAUC [JR_Ex4_Sub023] (Eterna round: R97, puzzle: Exclusion 4) | 27.9 nM | 23.3 nM | – | – | – | –
11 | CCCGGGCUUGUGAGGAUAUGCGCGCGGAAAUGUGUGUAGAAGGCACAUGAGGAUCACCCAUGUAAGGGCCCGGG [-32.4, -30.4 kcal, A 23%, 6-0] (Eterna round: R97, puzzle: Brourd's mod of Exclusion 4) | 19.3 nM | 148 nM | – | – | – | –
12 | ACAUGUCAUUGAGGAUAUUGCAAACAUGAGGAUCACCCAUGUAUACGGAUGCUCUUACGUGAGUUCGAGAAGGCGAUGUACAUU [Ex NG2 #91] (Eterna round: R96, puzzle: Exclusion NG 2) | 99.7 nM | 46.2 nM | 39.7 nM | – | – | –
13 | CAAAGACCGGCAGGAUAUUGACCCAGAACAUGAGGAUCACCCAUGUCAACAAGGUUGGACCAGGGCGAGAAGGGCCACGCCAAA [Eternabot solution 22] (Eterna round: R96, puzzle: Exclusion NG 2) | 12.3 nM | 22.1 nM | 12.5 nM | – | – | –
14 | CUGUGCACGCUGCGGUCCUACAUGAGGAUCACCCAUGUGGUCUGGUGGCGUGGGUCGCCGGACUUGGCUCGUCUUGG [salish99_S_TOV1_R5_025] (Eterna round: R97, puzzle: Sensor, turn-off variant 1) | 15.3 nM | 15.9 nM | – | – | – | –
15 | GUGGAACAUGAGGAUCACCCAUGUGAGGAUAUGUGUGAAUAGAGGAGAAGAAGAGAGAACAGAAGGCACGGAGG [JR_Exclu1_Sub066] (puzzle: Exclusion 1) | – | – | – | 73.4 nM | 53.3 nM | 93.3 nM
16 | UUGCAGUCGUCAGGAUAUAGUAUUACGGCCUUUUAUUUUUUCAUACAUGAGGAUCACCCAUGUCGCUAGAAGGGAUUAUCGAUU [salish99_ExNG2_r04_104] (Eterna round: R96, puzzle: Exclusion NG 2) | 39.6 nM | 41.4 nM | 31.6 nM | – | – | –
17 | CGUCGAAAUGUAGGAUAUCUGCACGUGUAGUGCAGAGAAGGACAUGAGGAUCACCCAUGUAGAUCACGACGAAUUAAUUUAAUU [ENG1/5-C3] (Eterna round: R96, puzzle: Exclusion NG 1) | 468 nM | 56.9 nM | 50.4 nM | – | – | –

Row | Sequence | apparent KD of MS2 coat protein (input ligand: FMN 200 uM) | apparent KD of MS2 coat protein (input ligand: none) | apparent KD of MS2 coat protein [1] | apparent KD of MS2 coat protein [2] | apparent KD of MS2 coat protein [3] | apparent KD of MS2 coat protein [4]
18 | GGCAUGUAAGGAUAUGCCACGGAGGCCUUUGGCCUCCGAAAGCAGAAGGUACAUGAGGAUCACCCAUGUGAUAA [jl-ex4-4.59 ViennaUCT mod] (Eterna round: R97, puzzle: Exclusion 4) | 467 nM | 390 nM | – | – | – | –
19 | UGAGCUUGAGGAUAUACAAUGAGCUUGAGAAAUCGAGUUCGACAUGAGGAUCACCCAUGUAGAAGGCGAGUUCG [-37.5, -35.6 kcal, A 28% 1 and 1] (Eterna round: R97, puzzle: Exclusion 2) | 28.1 nM | 17.7 nM | – | – | – | –
20 | AACCUGAGGCUUUGCUUUAGGUUUACAUGAGGAUCACCCAUGUAGGAUAUGGUAGGCUUUGCUUACCAGAAGGACAUGAUAAUU [Mat - Exclusion NG 3 - Mod of JL - D27] (Eterna round: R96, puzzle: Exclusion NG 3) | 215 nM | 43.8 nM | 33 nM | – | – | –
21 | UUAAUUAAUGUCAGGAUAUCUAGAGCUUCGGCUCUAGAGAAGGGACAUGAGGAUCACCCAUGUCACUCUUAAUU [BmEx4/3-C1] (Eterna round: R97, puzzle: Brourd's mod of Exclusion 4) | 21.1 nM | 15.1 nM | – | – | – | –
22 | GCAGCAUAGAUGAAAAUCUGAUACAUGAGGAUCACCCAUGUACAGGAUAUGGUCUGGAUUACAGGCCAGAAGGGUACAAGCUGC [Eli exng3 - 012] (Eterna round: R96, puzzle: Exclusion NG 3) | 15.7 nM | 12.1 nM | 10.4 nM | – | – | –
23 | ACAUGCUAGUAGGAUAUCGUACGCCGAAUAGUAUGAGAAGGAUUGACAUGAGGAUCACCCAUGUGAUGCCUGAA [Quveedes] (Eterna round: R97, puzzle: Exclusion 6) | 22 nM | 18.7 nM | – | – | – | –
24 | GUCAUGAUUGUGAGGAUAUUUCAUAGAUAGAUGUUAGAGAAGGUACAUGAGGAUCACCCAUGUGUGAUCAGACA [Brourd's EX4 #74] (Eterna round: R97, puzzle: Brourd's mod of Exclusion 4) | 336 nM | 478 nM | – | – | – | –
25 | ACUUGCUUUUUGCUCGUCUUAUUUUUGUUGACGUUCUAUACAUGAGGAUCACCCAUGUUUUGUUCCUUGUGCUGGUA [JR_SV3TOV2_Sub073] (puzzle: Sensor v3, turn-off variant 2) | – | – | – | 183 nM | 169 nM | 166 nM
26 | GAAGCACAUGAGGAUCACCCAUGUAAGGAUAUAUUUCUGGUCCGGCCGGACCAGUACCGUAGAAGGUAUGUAAA [Excls-IIIa] (puzzle: Exclusion 1) | – | – | – | 11.8 nM | – | –
27 | GUAGAGACAGGAUAUACAUGAGGAUCACCCAUGUGAGGAGGAAAAGAGAGGAGAAAGAGUAGAAGGGUCGAAAG [JR_Exclu3_Sub030] (puzzle: Exclusion 3) | – | – | – | 35.7 nM | 41.4 nM | 43 nM
28 | AAUUUGCAAGCGAGAUCCCACAUGAGGAUCACCCAUGUGCUCGUCUUAUAAGGUACUGUGACAAUAGUCACGGUACC [Mat - Sensor, turn-off var - Eli Mod - D94] (Eterna round: R97, puzzle: Sensor, turn-off variant 1) | 16.7 nM | 20.8 nM | – | – | – | –
29 | GUCAGACGAGGAUAUGAUCAAUAAUACAUGAGGAUCACCCAUGUAAUACUGAUCCAUGGAUCAGAAGGCGUCUGAC [E5/5-A4] (Eterna round: R97, puzzle: Exclusion 5) | 23.4 nM | 15.4 nM | – | – | – | –
30 | UGAUUGUUUACCAGGUUAUACAUGAGGAUCACCCAUGUAGAUCCUACGUGCGCGUUAUACCGCUCGUCUUAUUCCCA [Sensor-V1 #77] (Eterna round: R97, puzzle: Sensor, turn-off variant 1) | 19.1 nM | 19.8 nM | – | – | – | –
31 | GGUCGAAGUGUGAGGAUAUGCUGGUCCUUGGAUCAGCAGAAGGCACAUGAGGAUCACCCAUGUGGUAAACGACC [Mat - Exclusion 4 - Eli Mod - D34] (Eterna round: R97, puzzle: Brourd's mod of Exclusion 4) | 982 nM | 171 nM | – | – | – | –
32 | GUGUGACAUGAGGAUCACCCAUGUGAGGAUAUUUAUGUUUGGUUGUUUAGUUGGGCGUGGAGAAGGCGCGUGCG [19% As] (Eterna round: R97, puzzle: Exclusion 1) | 65.6 nM | 85.1 nM | – | – | – | –
33 | CCCGUGUAAGGAUAUCGUUCACUUGGCGAAAGUCGAGUGGACGAGAAGGUACAUGAGGAUCACCCAUGUACGGG [-36.1, -35.7 kcal, A 27%] (Eterna round: R97, puzzle: Exclusion 4) | 438 nM | 305 nM | – | – | – | –
